The chains are these.
B2: human BTN3A1 (CD277) expressed on the cell surface (BTN-K32 aAPCs: K562 cells expressing human CD32 and BTN3A1; BMDCs of BTN3A1 knock-in mice) (receptor)
chain: not shown
notes: also called BTNA31-K32; BTN3-K32

Some results are limits rather than exact numbers.

Assay [1] has as its target B2. The assay is described as follows: cell-based or functional assay.
The target in assay [2] is T1, biotinylated human CD277 Fc fusion (human, UniProt O00481 30-254, limits assumed, biotinylated with EZ-Link Sulfo-NHS biotinylation reagent (sites not given)).
T1 construct: also called human CD277 Fc fusion antigen
Kind of assay: yeast display selection (MACS and FACS) for binders of biotinylated human CD277 Fc fusion.

In assay [3] the target is T2, recombinant NRP1 Fc protein (UniProt O14786-2 22-644, limits assumed).
T2 construct: Construct not described
T2 sequence (looked up): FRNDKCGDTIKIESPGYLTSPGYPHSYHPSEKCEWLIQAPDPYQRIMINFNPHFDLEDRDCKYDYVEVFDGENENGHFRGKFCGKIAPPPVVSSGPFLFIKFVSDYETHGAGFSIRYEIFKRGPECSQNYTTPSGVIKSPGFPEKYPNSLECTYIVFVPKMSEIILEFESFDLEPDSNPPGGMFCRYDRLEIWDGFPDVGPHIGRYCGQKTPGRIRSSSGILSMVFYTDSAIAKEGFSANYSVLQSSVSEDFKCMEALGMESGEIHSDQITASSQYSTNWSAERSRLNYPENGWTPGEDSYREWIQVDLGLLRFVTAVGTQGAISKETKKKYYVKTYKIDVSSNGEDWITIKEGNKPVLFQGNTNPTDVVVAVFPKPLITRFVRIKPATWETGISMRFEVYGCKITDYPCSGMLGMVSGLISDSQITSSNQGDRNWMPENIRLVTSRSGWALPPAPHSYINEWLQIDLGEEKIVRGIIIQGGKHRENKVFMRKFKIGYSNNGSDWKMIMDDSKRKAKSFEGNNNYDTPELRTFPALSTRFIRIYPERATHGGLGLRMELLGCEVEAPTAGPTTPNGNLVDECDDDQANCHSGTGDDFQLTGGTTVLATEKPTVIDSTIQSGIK
Kind of assay: binding of recombinant Fc proteins to BTN-K32 aAPCs vs. mock-transduced aAPCs.

In assay [4] the target is T3, recombinant NRP2 Fc protein (UniProt O60462 23-864, limits assumed).
T3 construct: Construct not described
T3 sequence (looked up): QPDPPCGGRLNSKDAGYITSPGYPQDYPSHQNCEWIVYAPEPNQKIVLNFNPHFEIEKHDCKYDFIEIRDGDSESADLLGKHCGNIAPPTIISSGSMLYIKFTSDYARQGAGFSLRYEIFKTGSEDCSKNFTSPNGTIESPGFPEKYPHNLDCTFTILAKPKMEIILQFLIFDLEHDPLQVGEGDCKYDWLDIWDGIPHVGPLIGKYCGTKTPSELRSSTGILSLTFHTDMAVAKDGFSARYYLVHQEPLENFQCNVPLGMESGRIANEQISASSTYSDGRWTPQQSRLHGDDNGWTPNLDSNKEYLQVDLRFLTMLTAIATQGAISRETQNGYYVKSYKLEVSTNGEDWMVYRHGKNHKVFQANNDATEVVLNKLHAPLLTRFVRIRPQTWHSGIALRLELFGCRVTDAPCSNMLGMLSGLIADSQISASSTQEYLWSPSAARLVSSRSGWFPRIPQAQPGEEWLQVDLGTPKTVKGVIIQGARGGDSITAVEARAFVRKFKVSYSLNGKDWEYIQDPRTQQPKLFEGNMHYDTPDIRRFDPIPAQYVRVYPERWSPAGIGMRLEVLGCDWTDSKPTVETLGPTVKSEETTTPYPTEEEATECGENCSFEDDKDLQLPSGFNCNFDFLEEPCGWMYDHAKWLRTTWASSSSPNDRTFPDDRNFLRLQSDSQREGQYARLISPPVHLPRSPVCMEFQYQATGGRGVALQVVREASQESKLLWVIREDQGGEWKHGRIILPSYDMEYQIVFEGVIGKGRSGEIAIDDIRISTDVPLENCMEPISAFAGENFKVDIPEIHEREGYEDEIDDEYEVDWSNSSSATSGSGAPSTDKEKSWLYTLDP
Described as above.

Assay [5] concerns the target B2. Described as above.
In assay [6] the target is T4, CD44 of OKT3-activated primary αβ T cells (human, UniProt P16070 21-742).
T4 construct: whole, on cells
Kind of assay: co-immunoprecipitation from activated primary αβ T cells after DTSSP crosslinking, LC-MS/MS. The method, then: (§1) Proteins were eluted with LDS sample buffer supplemented with DTT by heating at 70° C. for 10 minutes. Eluted fractions from BTN3A1-Fc and control were run into an SDS-gel for 0.5 cm, and the entire gel lanes were excised and digested with trypsin. Liquid chromatography tandem mass spectrometry (LC-MS/MS) analysis of tryptic digests was performed by the Wistar Proteomics and Metabolomics Facility using a Q Exactive HF mass spectrometer (Thermo Scientific). MS/MS spectra generated from the LC-MS/MS runs were searched using full tryptic specificity against the UniProt human database (www.uniprot.org; Oct. 1, 2017) using the MaxQuant 1.6.0.16 program. Protein quantitation was based on intensity and MS/MS count was determined from unique and razor peptides (J. Cox, M. Mann, MaxQuant enables high peptide identification rates, individualized p.p.b.-range mass accuracies and proteome-wide protein quantification. Nat Biotechnol 26, 1367-1372 (2008)). False discovery rates for protein and peptide were set at 1%. Protein tables were filtered to remove reverse database entries, common contaminants, and proteins identified by a single peptide.
(§2) To determine the mechanism by which BTN3A1 (also referred to herein as CD277) inhibits αβ T cell activity, the binding of BTN3A1 to potential immunosuppressive receptors was ruled out by comparing the binding of recombinant NKG2A, GPR174, NRP1, NRP2, PD-1, CTLA4, TIM-3 and BTLA Fc proteins to MHC-I⁻CD32⁺ K562 artificial Antigen-Presenting Cells with BTN3A1 retrovirally expressed on the surface of the cell (BTN-K32 aAPCs) vs. mock-transduced aAPCs. Binding of BTN3A1 to these immunosuppressive receptors was not observed. BTN3A1-Fc proteins were then used to co-immunoprecipitate (co-IP) the binding partner(s) of BTN3A1 on OKT3-activated primary αβ T cells from three independent pull downs from three different donors.

The target of assay [7] is T5, CD5 of OKT3-activated primary αβ T cells (human, UniProt P06127 25-495).
T5 construct: whole, on cells
T5 sequence (looked up): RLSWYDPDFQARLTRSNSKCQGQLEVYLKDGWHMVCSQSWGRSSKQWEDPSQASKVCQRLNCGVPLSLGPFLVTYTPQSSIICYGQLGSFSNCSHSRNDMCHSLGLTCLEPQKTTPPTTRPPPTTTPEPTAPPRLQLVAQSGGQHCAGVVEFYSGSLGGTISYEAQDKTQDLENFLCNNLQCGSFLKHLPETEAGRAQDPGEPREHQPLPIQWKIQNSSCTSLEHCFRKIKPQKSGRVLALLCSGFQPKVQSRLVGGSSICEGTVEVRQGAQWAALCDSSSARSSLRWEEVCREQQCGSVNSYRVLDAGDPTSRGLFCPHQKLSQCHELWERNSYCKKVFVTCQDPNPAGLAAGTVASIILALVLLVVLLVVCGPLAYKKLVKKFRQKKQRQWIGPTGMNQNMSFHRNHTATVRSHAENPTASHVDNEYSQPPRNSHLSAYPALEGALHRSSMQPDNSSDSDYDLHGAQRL
The description is as above. Here is the method:
as §1, §2

Assay [8] has as its target T6, CD2 of OKT3-activated primary αβ T cells (human, UniProt P06729 25-351).
T6 construct: whole, on cells
T6 sequence (looked up): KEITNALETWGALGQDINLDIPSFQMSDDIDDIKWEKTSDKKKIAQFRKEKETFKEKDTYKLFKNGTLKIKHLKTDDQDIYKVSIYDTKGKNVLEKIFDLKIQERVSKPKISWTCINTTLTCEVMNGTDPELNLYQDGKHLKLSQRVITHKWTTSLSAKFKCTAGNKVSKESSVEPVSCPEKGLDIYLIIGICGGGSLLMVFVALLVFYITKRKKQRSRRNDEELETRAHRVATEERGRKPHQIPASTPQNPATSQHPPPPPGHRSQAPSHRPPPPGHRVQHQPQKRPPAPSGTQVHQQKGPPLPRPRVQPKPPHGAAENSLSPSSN
The assay is described as above. The method, then:
as §1, §2

T4 sequence (P16070 21-742): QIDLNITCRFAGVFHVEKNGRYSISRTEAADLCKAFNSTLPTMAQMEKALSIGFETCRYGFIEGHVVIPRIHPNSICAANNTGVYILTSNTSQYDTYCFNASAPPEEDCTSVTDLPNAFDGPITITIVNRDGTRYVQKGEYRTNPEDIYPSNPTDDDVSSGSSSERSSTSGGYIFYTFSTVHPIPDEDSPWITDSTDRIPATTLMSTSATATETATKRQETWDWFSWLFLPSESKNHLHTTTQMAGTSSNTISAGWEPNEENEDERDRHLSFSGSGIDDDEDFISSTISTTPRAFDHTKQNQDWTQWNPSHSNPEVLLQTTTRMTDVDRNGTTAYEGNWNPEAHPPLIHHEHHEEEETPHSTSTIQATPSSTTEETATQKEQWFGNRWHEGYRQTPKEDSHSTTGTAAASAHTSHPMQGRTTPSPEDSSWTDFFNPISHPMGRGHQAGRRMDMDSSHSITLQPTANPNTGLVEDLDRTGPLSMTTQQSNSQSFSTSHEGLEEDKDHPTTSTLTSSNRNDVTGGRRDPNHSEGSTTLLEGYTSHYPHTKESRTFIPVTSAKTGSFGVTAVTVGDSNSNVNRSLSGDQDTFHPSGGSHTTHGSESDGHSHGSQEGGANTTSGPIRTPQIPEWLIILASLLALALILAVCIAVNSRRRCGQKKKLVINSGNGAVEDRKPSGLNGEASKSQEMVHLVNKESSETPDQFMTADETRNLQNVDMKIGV

B1: anti-CD277 monoclonal antibody mAb1 (antibody, human IgG1, kappa, N297A)
heavy: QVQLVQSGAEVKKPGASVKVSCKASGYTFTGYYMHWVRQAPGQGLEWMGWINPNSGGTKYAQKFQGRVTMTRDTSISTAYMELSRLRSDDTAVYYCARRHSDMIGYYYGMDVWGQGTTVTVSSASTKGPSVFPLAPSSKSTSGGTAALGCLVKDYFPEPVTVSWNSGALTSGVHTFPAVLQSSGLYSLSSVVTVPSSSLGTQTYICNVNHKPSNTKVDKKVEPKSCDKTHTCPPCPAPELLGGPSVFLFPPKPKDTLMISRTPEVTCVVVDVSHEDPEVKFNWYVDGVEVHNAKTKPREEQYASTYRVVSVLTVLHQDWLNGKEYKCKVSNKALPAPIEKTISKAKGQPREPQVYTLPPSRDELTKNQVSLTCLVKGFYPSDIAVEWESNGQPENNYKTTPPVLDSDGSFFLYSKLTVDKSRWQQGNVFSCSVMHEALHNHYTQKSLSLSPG
light: DIQMTQSPSSVSASVGDRVTITCRASQGISSWLAWYQQKPGKAPKLLIYAASSLQSGVPSRFSGSGSGTDFTLTISSLQPEDFATYYCQQATDFPPTFGGGTKVEIKRTVAAPSVFIFPPSDEQLKSGTASVVCLLNNFYPREAKVQWKVDNALQSGNSQESVTEQDSKDSTYSLSSTLTLSKADYEKHKVYACEVTHQGLSSPVTKSFNRGEC
notes: also called anti-CD277 antibody mAb1; anti-CD277 mAb1
For B1, in assay [1], the “IFN-γ release of purified CD4+ T cells stimulated with BTN-K32 cells (ELISA, fold over baseline)” value is above 2 fold; the “IFN-γ release of purified CD8+ T cells stimulated with BTN-K32 cells (ELISA, fold)” value was around 1300 fold; the “proliferation of gated CD4+ T cells within total PBMCs stimulated with anti-CD3/anti-CD28 coated BTN-K32 cells (fold change)” value was at least 1.5 fold; the “proliferation of gated CD8+ T cells within total PBMCs stimulated with anti-CD3/anti-CD28 coated BTN-K32 cells (fold change)” value is at least 1.5 fold. In assay [1], the “proliferation of purified CD4+ T cells stimulated with BTN-K32 cells (fold change)” value is at least 1.5 fold and the “proliferation of purified CD8+ T cells stimulated with BTN-K32 cells (fold change)” value is at least 2 fold. For the same molecule, in assay [2], the binding result is “binds”.

B2: the binding result in assay [3] and in assay [4] was “no binding” throughout.

B3: recombinant NKG2A Fc protein (Fc fusion, not shown: a dimerising Fc or GST)
chain: not shown
notes: Construct not described
B3: in assay [5], the binding result is on record as “no binding”.

B4: BTN3A1-Fc fusion protein (R&D systems Cat #8539-BT-050) (Fc fusion)
chain: not shown
notes: Bought from R&D systems; also called BTN3A1-Fc proteins; CD277; not shown: Fc part of the bought fusion protein
B4: the binding result in assay [6], in assay [7] and in assay [8] was “no binding (tested: 10 µg/ml BTN3A1-Fc)” each time.

Values taken from patent publication US20210388089A1 (COMPASS THERAPEUTICS, published 2021).
